Three molecules from patent publication US20210396761A1 (AICURIS, published 2021) can be followed below.

Data set [1] addresses T1, HCMV pUL50, C-terminally fused to the HA epitope (pcDNA-UL50-HA, pHM2589) (human cytomegalovirus (HCMV) strain …, UniProt P16791 1-397).
T1 sequence: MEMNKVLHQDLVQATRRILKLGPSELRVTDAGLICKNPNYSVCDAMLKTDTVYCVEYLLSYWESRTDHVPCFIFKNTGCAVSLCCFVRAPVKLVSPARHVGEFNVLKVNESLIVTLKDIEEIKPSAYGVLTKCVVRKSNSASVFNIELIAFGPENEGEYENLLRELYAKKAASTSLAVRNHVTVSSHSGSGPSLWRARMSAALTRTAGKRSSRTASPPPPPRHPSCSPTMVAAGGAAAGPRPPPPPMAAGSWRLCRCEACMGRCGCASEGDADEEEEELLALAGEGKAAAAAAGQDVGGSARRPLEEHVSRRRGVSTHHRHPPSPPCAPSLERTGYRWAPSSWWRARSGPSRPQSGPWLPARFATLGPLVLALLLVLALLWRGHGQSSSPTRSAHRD
The experiment in a line: coimmunoprecipitation, transiently transfected 293T cells.

In data set [2] the target is T2, VZV Orf24, C-terminally fused to the HA epitope (pcDNA-Orf24-HA, pHM4695) (varicella zoster virus (VZV) strain …, UniProt P09280 1-269).
T2 sequence: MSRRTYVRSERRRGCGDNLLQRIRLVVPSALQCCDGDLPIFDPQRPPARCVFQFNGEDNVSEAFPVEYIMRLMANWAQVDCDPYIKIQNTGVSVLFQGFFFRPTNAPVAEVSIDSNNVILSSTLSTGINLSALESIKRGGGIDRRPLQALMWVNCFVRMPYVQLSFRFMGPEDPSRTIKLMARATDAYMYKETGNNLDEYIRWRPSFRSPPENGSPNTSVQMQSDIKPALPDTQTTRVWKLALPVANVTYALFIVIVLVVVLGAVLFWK
The data set is described as above.

Data set [3] addresses T3, EBV BFLF2, C-terminally fused to the Flag epitope (pcDNA-BFLF2-Flag, pHM4698) (Epstein-Barr virus (EBV) strain B95-8, UniProt P0CK47 1-318).
T3 construct: also called Flag-tagged BFLF2
T3 sequence: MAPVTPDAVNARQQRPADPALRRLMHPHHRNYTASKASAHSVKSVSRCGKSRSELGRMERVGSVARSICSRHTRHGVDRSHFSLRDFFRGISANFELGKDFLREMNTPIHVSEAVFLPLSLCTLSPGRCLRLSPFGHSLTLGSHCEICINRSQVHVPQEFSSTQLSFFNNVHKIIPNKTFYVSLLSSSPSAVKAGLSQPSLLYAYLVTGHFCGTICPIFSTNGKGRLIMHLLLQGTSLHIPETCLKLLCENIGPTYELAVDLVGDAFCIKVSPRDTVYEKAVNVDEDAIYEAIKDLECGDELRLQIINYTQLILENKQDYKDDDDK
The description is as above.

Data set [4] deals with the molecule itself. The experiment in a line: analytical size exclusion chromatography (Superdex 75 10/300). In general terms: SEC sorts molecules by how far they enter the pores of the column.
A further data set deals with T4, pUL53 (50-292) (human cytomegalovirus (HCMV) strain …, UniProt P16794 50-292).
T4 sequence: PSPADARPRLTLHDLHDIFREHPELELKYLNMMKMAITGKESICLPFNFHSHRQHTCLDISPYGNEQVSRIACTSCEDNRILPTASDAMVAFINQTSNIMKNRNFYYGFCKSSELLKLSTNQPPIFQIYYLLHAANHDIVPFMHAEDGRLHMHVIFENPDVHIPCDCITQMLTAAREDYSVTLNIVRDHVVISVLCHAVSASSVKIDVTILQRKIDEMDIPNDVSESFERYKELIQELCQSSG
The experiment in a line: analytical size exclusion chromatography, coproduced in E. coli and also mixed in vitro.

B1: MCMV pM53, C-terminally fused to the Flag epitope (pcDNA-M53-Flag, pHM4718) (other)
chain: MFRSPEGEERDAADREEEEGGEARRRSRMMMSPRRVKRARHRPAGSGLRTPLRSPSACRCSSPSPERQWQQRRRAEKRSTTPTDPPPPPKRSAASAAAGAAAPESEYLNVKLSELHDVFQRHPDLEQKYLKIMKLPITGKESIRLPFDFKSHRQHTCLDLSPYGNDQVSRSACTTCKETTRLPTASDSMVAFINQTSNVMKHRKFYFGFRKNMELLKMAANQPQLFQIYYIVQSCVQEIVPLIYYDREMAHMQLIFEKETVHIPSQCIEQILTVAKDAYGVSLDIAHQRITLTARCLRLESSSLRIDVLMLQRKVDELEIPNETNEKFESYSLDYKDDDDK
notes: also called pM53-Flag; Flag-tagged pM53
Turning to B1, the binding result is “binds” in data set [1] and “no binding” in data set [2].

B2: MCMV pM50, C-terminally fused to the HA epitope (pcDNA-M50-HA, pHM4717) (other)
chain: MEIDKNVGADLISNTRRILRLDENELRITDTALICKNPNYSLCDAMLTTDIVYPVEYLLSYWECRSGRTACFVFKNTGCRVSLSCYIGFPERLKDLKRVCDFNFLSVNEALVVTLADIERIKPCDKGVLTNCVVRKSNSGMSYNIEVVAFGPDNEAEYQALLRDIYARRMTSVPTDCGSLICRRARCLAAAPPRRPPPPPPPGQRWGSLRKHGPVLTRRYAGGGGAAKNQPAAASPTSTSTSSPAAPSRDQDQTQRPPPAGDTNVTAAETTYSERTISFLTRHANAIHCALILAAAIALVLLWLLYWHAARSAGHP
notes: also called pM50-HA; HA-tagged pM50
For the molecule B2, in data set [3], the binding result is given as “no binding”.

B3: pUL50 (1-181) (other)
chain: MEMNKVLHQDLVQATRRILKLGPSELRVTDAGLICKNPNYSVCDAMLKTDTVYCVEYLLSYWESRTDHVPCFIFKNTGCAVSLCCFVRAPVKLVSPARHVGEFNVLKVNESLIVTLKDIEEIKPSAYGVLTKCVVRKSNSASVFNIELIAFGPENEGEYENLLRELYAKKAASTSLAVRNH
B3: the values for the binding result (in data set [4]; with pUL53 (50-292)) were “no binding” and “binds”, respectively.
